Here are results for two molecules from paper PMC10462243 (Research Square, 2023).

B1: Plk4 CPB(581–808), purified (domain or fragment, UniProt O00444 581-808, looked up)
chain: GYQNRTLRSITSPLVAHRLKPIRQKTKKAVVSILDSEEVCVELVKEYASQEYVKEVLQISSDGNTITIYYPNGGRGFPLADRPPSPTDNISRYSFDNLPEKYWRKYQYASRFVQLVRSKSPKITYFTRYAKCILMENSPGADFEVWFYDGVKIHKTEDFIQVIEKTGKSYTLKSESEVNSLKEEIKMYMDHANEGHRICLALESIISEEERKTRSAPFFPIIIGRKPG
notes: Plk4 cryptic polo-box, residues 581–808; Two copies for each Vpr•VprBP in the SEC complex; The construct has a TEV site
B2: Vpr (insect cells, co-expressed with VprBP WD40-AR) (natural protein)
chain: MEQAPEDQGPQREPYNEWTLELLEELKSEAVRHFPRIWLHNLGQHIYETYGDTWAGVEAIIRILQQLLFIHFRIGCRHSRIGVTRQRRARNGASRS
notes: HIV-1 Vpr ORF, expressed on its own from a p10 promoter in the dual construct; also called 11-kDa Vpr; source: Tni-FNL insect cells, co-expressed with His-MBP-TEV-VprBP, purified (HisTrap, SEC)

Assay in all cases: SEC; purified Vpr, VprBP(1057–1507), Plk4 CPB(581–808) and DDB1; HisTrap eluate of VprBP and Vpr digested with TEV, mixed with Plk4 CPB; SEC in 20 mM Tris-HCl pH 7.5, 100 mM NaCl, 10% glycerol; stoichiometry estimated from Coomassie-stained protein intensity
Data set [1] deals with T1, Vpr•VprBP WD40-AR complex ( | HIV-1 (pNL4–3), UniProt Q9Y4B6;P12520).
T1 construct: VprBP (DCAF1) WD40 domain and acidic region; HIV-1 Vpr ORF; Chains as m38 and m37, formed by co-expression before Plk4 CPB was added; also called VprBP (WD40-AR)•Vpr complex; source: Tni-FNL insect cells, co-expressed, purified (HisTrap, TEV); not shown: His, N-terminal, cleaved; MBP, N-terminal, cleaved; copies: 1 + 1
As to conditions: both partners purified.

Data set [2] concerns the molecule itself.
For data set [3], the target named is B1. Particulars: both partners purified.

T1 sequence (Q9Y4B6 1057-1507, one chain of several): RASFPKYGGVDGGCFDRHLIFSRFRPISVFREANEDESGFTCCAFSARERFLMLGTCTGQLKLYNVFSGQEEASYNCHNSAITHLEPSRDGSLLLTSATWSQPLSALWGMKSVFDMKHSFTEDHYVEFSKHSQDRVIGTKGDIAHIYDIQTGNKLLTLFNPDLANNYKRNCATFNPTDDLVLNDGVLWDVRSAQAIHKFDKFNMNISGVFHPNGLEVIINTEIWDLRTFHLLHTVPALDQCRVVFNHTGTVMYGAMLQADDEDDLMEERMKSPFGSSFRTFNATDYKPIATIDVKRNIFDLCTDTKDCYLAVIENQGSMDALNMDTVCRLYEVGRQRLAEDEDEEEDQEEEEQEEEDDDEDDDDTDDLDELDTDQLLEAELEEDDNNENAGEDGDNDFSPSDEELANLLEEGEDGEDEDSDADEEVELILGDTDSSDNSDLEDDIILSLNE

By stoichiometry N is commonly meant a count of units in the complex or per binding partner. On to B1, for which, in data set [1], the “stoichiometry N” value was ~2. The binding result in data set [2] was “binds”.

On to B2, for which, in data set [3], the binding result is recorded as “binds”.
